Reference: US8999727

Key:
[1] = target: truncated TSH receptor chimera B (extracellular portion) fused with the secretory alkaline phosphatase (human TSHR with rat LH-CGR subsequence); assay: bridge assay: standard at 0.4 IU/L on plate-bound TSH receptor chimera B, detected with SEAP-chimera B; RLU relative to zero serum
[2] = target: truncated TSH receptor chimera B (extracellular portion) fused with the secretory alkaline phosphatase (human TSHR with rat LH-CGR subsequence); assay: bridge assay: standard at 0.6 IU/L on plate-bound TSH receptor chimera B, detected with SEAP-chimera B; RLU relative to zero serum
[3] = target: truncated TSH receptor chimera B (extracellular portion) fused with the secretory alkaline phosphatase (human TSHR with rat LH-CGR subsequence); assay: bridge assay: standard at 0.5 IU/L on plate-bound TSH receptor chimera B, detected with SEAP-chimera B, chemiluminescence
[4] = target: truncated TSH receptor chimera B (extracellular portion) fused with the secretory alkaline phosphatase (human TSHR with rat LH-CGR subsequence); assay: bridge assay: standard at 5.0 IU/L on plate-bound TSH receptor chimera B, detected with SEAP-chimera B, chemiluminescence
[5] = target: truncated TSH receptor chimera B (extracellular portion) fused with the secretory alkaline phosphatase (human TSHR with rat LH-CGR subsequence); assay: bridge assay: standard at 50.0 IU/L on plate-bound TSH receptor chimera B, detected with SEAP-chimera B, chemiluminescence
[6] = target: truncated TSH receptor chimera B (extracellular portion) fused with the secretory alkaline phosphatase (human TSHR with rat LH-CGR subsequence); assay: bridge assay: standard at 2.0 IU/L on plate-bound TSH receptor chimera B, detected with SEAP-chimera B; RLU relative to zero serum
[7] = target: truncated TSH receptor chimera B (extracellular portion) fused with the secretory alkaline phosphatase (human TSHR with rat LH-CGR subsequence); assay: bridge assay: standard at 0.3 IU/L on plate-bound TSH receptor chimera B, detected with SEAP-chimera B; RLU relative to zero serum
[8] = target: truncated TSH receptor chimera B (extracellular portion) fused with the secretory alkaline phosphatase (human TSHR with rat LH-CGR subsequence); assay: bridge assay: standard at 0.2 IU/L on plate-bound TSH receptor chimera B, detected with SEAP-chimera B; RLU relative to zero serum
[9] = target: truncated TSH receptor chimera B (extracellular portion) fused with the secretory alkaline phosphatase (human TSHR with rat LH-CGR subsequence); assay: bridge assay: standard at 0.9 IU/L on plate-bound TSH receptor chimera B, detected with SEAP-chimera B; RLU relative to zero serum
[10] = target: truncated TSH receptor chimera B (extracellular portion) fused with the secretory alkaline phosphatase (human TSHR with rat LH-CGR subsequence); assay: bridge assay: standard at 0.1 IU/L on plate-bound TSH receptor chimera B, detected with SEAP-chimera B; RLU relative to zero serum
[11] = target: truncated TSH receptor chimera B (extracellular portion) fused with the secretory alkaline phosphatase (human TSHR with rat LH-CGR subsequence); assay: bridge assay: standard at 0.3 IU/L on plate-bound TSH receptor chimera B, detected with SEAP-chimera B, chemiluminescence
[12] = target: truncated TSH receptor chimera B (extracellular portion) fused with the secretory alkaline phosphatase (human TSHR with rat LH-CGR subsequence); assay: bridge assay: standard at 0.7 IU/L on plate-bound TSH receptor chimera B, detected with SEAP-chimera B; RLU relative to zero serum
[13] = target: truncated TSH receptor chimera B (extracellular portion) fused with the secretory alkaline phosphatase (human TSHR with rat LH-CGR subsequence); assay: bridge assay: standard at 50.0 IU/L on plate-bound TSH receptor chimera B, detected with SEAP-chimera B; RLU relative to zero serum
[14] = target: truncated TSH receptor chimera B (extracellular portion) fused with the secretory alkaline phosphatase (human TSHR with rat LH-CGR subsequence); assay: bridge assay: standard at 0.2 IU/L on plate-bound TSH receptor chimera B, detected with SEAP-chimera B, chemiluminescence
[15] = target: truncated TSH receptor chimera B (extracellular portion) fused with the secretory alkaline phosphatase (human TSHR with rat LH-CGR subsequence); assay: bridge assay: standard at 1.0 IU/L on plate-bound TSH receptor chimera B, detected with SEAP-chimera B, chemiluminescence
[16] = target: truncated TSH receptor chimera B (extracellular portion) fused with the secretory alkaline phosphatase (human TSHR with rat LH-CGR subsequence); assay: bridge assay: standard at 0.9 IU/L on plate-bound TSH receptor chimera B, detected with SEAP-chimera B, chemiluminescence
[17] = target: truncated TSH receptor chimera B (extracellular portion) fused with the secretory alkaline phosphatase (human TSHR with rat LH-CGR subsequence); assay: bridge assay: standard at 0.6 IU/L on plate-bound TSH receptor chimera B, detected with SEAP-chimera B, chemiluminescence
[18] = target: truncated TSH receptor chimera B (extracellular portion) fused with the secretory alkaline phosphatase (human TSHR with rat LH-CGR subsequence); assay: bridge assay: standard at 15.0 IU/L on plate-bound TSH receptor chimera B, detected with SEAP-chimera B; RLU relative to zero serum
[19] = target: truncated TSH receptor chimera B (extracellular portion) fused with the secretory alkaline phosphatase (human TSHR with rat LH-CGR subsequence); assay: bridge assay: standard at 15.0 IU/L on plate-bound TSH receptor chimera B, detected with SEAP-chimera B, chemiluminescence
[20] = target: truncated TSH receptor chimera B (extracellular portion) fused with the secretory alkaline phosphatase (human TSHR with rat LH-CGR subsequence); assay: bridge assay: standard at 1.0 IU/L on plate-bound TSH receptor chimera B, detected with SEAP-chimera B; RLU relative to zero serum
[21] = target: truncated TSH receptor chimera B (extracellular portion) fused with the secretory alkaline phosphatase (human TSHR with rat LH-CGR subsequence); assay: bridge assay: standard at 30.0 IU/L on plate-bound TSH receptor chimera B, detected with SEAP-chimera B, chemiluminescence
[22] = target: truncated TSH receptor chimera B (extracellular portion) fused with the secretory alkaline phosphatase (human TSHR with rat LH-CGR subsequence); assay: bridge assay: standard at 0.8 IU/L on plate-bound TSH receptor chimera B, detected with SEAP-chimera B, chemiluminescence
[23] = target: truncated TSH receptor chimera B (extracellular portion) fused with the secretory alkaline phosphatase (human TSHR with rat LH-CGR subsequence); assay: bridge assay: standard at 0.5 IU/L on plate-bound TSH receptor chimera B, detected with SEAP-chimera B; RLU relative to zero serum
[24] = target: truncated TSH receptor chimera B (extracellular portion) fused with the secretory alkaline phosphatase (human TSHR with rat LH-CGR subsequence); assay: bridge assay: standard at 0.7 IU/L on plate-bound TSH receptor chimera B, detected with SEAP-chimera B, chemiluminescence
[25] = target: truncated TSH receptor chimera B (extracellular portion) fused with the secretory alkaline phosphatase (human TSHR with rat LH-CGR subsequence); assay: bridge assay: standard at 0.8 IU/L on plate-bound TSH receptor chimera B, detected with SEAP-chimera B; RLU relative to zero serum
[26] = target: truncated TSH receptor chimera B (extracellular portion) fused with the secretory alkaline phosphatase (human TSHR with rat LH-CGR subsequence); assay: bridge assay: standard at 5.0 IU/L on plate-bound TSH receptor chimera B, detected with SEAP-chimera B; RLU relative to zero serum
[27] = target: truncated TSH receptor chimera B (extracellular portion) fused with the secretory alkaline phosphatase (human TSHR with rat LH-CGR subsequence); assay: bridge assay: standard at 30.0 IU/L on plate-bound TSH receptor chimera B, detected with SEAP-chimera B; RLU relative to zero serum
[28] = target: truncated TSH receptor chimera B (extracellular portion) fused with the secretory alkaline phosphatase (human TSHR with rat LH-CGR subsequence); assay: bridge assay: standard at 0.4 IU/L on plate-bound TSH receptor chimera B, detected with SEAP-chimera B, chemiluminescence
[29] = target: truncated TSH receptor chimera B (extracellular portion) fused with the secretory alkaline phosphatase (human TSHR with rat LH-CGR subsequence); assay: bridge assay: standard at 2.0 IU/L on plate-bound TSH receptor chimera B, detected with SEAP-chimera B, chemiluminescence
[30] = target: truncated TSH receptor chimera B (extracellular portion) fused with the secretory alkaline phosphatase (human TSHR with rat LH-CGR subsequence); assay: bridge assay: standard at 0.1 IU/L on plate-bound TSH receptor chimera B, detected with SEAP-chimera B, chemiluminescence

truncated TSH receptor chimera B (extracellular portion) fused with the secretory alkaline phosphatase (human TSHR with rat LH-CGR subsequence), sequence (chain, as listed by the source mutant): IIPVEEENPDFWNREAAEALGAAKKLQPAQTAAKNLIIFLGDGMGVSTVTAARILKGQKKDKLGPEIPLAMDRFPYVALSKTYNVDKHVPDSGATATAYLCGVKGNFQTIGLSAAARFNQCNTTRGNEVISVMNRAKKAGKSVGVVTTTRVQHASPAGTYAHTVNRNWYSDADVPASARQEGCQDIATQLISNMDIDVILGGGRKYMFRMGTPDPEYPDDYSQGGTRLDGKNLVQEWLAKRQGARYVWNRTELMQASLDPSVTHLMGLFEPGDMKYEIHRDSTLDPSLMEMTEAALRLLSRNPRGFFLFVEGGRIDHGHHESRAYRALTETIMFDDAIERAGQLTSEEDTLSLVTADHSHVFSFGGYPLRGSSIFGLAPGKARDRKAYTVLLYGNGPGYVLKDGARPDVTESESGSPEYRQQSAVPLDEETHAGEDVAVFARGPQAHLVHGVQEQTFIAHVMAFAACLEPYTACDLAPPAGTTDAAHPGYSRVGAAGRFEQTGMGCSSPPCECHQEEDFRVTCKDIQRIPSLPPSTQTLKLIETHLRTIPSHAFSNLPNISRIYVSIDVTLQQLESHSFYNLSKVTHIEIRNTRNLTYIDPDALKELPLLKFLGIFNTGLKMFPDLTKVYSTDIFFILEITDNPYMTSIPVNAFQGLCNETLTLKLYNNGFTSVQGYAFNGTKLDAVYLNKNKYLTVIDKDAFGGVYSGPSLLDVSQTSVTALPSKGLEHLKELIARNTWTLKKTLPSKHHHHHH

- B/B0 [1]: 11.8
- B/B0 [2]: 16.9
- RLU Average n = 3 [3]: 98400 RLU
- RLU Average n = 3 [4]: 939000 RLU
- RLU Average n = 3 [5]: 4.85e+06 RLU
- B/B0 [6]: 55.5
- B/B0 [7]: 9.57
- B/B0 [8]: 6.77
- B/B0 [9]: 27.9
- B/B0 [10]: 4.19
- RLU Average n = 3 [11]: 65800 RLU
- B/B0 [12]: 19.7
- B/B0 [13]: 704
- RLU Average n = 3 [14]: 46600 RLU
- RLU Average n = 3 [15]: 183000 RLU
- RLU Average n = 3 [16]: 192000 RLU
- RLU Average n = 3 [17]: 117000 RLU
- B/B0 [18]: 361
- RLU Average n = 3 [19]: 2.48e+06 RLU
- B/B0 [20]: 26.6
- RLU Average n = 3 [21]: 3.77e+06 RLU
- RLU Average n = 3 [22]: 166000 RLU
- B/B0 [23]: 14.3
- RLU Average n = 3 [24]: 136000 RLU
- B/B0 [25]: 24.1
- B/B0 [26]: 136
- B/B0 [27]: 548
- RLU Average n = 3 [28]: 81500 RLU
- RLU Average n = 3 [29]: 382000 RLU
- RLU Average n = 3 [30]: 28800 RLU
Substance: standard solution WHO 90/672 with a standardized concentration of autoimmune antibody (TSH receptor auto-antibody standard)
